{
  "source": "paper PMC5944358",
  "target": "MVN-DAVEI4-3Trp (not stated | HIV-1 (strain not stated))",
  "assay": "ELISA",
  "data": [
    {"substance": "HIV-1 YU2 gp120 (from UniProt P35961 32-498) (natural protein)", "values": [
      {"measurement": "EC50", "value": 79, "unit": "nM"}
    ]}
  ]
}
